Patent publication US20200071404A1

Molecular target: human CD73 expressed on cells (cancer cell line NCI-H1373 endogenously expressing human CD73; human T cell expressing human CD73) (human) (UniProt P21589)
Assay: cell-based or functional assay

human CD73 expressed on cells (cancer cell line NCI-H1373 endogenously expressing human CD73; human T cell expressing human CD73) (human), sequence (P21589 27-549): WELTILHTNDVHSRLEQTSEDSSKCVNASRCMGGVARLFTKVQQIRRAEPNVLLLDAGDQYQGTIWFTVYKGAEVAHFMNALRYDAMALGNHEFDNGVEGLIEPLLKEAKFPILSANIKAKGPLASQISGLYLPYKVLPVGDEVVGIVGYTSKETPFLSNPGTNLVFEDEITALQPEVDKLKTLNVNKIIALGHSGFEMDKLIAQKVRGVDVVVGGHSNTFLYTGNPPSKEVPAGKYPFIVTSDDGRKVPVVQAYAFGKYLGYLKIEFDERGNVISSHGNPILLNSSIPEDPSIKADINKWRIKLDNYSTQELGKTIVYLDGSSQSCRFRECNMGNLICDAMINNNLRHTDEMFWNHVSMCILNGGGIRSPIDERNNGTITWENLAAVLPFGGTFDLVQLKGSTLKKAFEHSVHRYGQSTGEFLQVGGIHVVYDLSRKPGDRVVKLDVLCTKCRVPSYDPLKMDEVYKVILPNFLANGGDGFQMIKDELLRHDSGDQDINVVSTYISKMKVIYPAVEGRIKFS

B1: 6E1 (antibody, from another filing, V domains shown)
VH: EFQLQQSGPELVKPGASVKVSCKASGYAFTSYNMYWVKQSHGKRLEWIGYIDPYNGGSSYNQKFKGKATLTVDKSSSTAYMHLNNLTSEDSAVYYCARGYNNYKAWFAYWGQGTLVTVSA
VL: SIVMTQTPKFLLVSAGDRVTITCKASQSVTNDVAWYQQKPGQSPKLLIYYASNRYTGVPDRFTGSGYGTDFTFTISTMQAEDLAVYFCQQDYSSLTFGAGTKLELK
B1 was tested. Which EC50 (ng/mL), IFNγ; recovery of AMP-dependently suppressed human T cell functions did it give?
Its EC50 (ng/mL), IFNγ; recovery of AMP-dependently suppressed human T cell functions is 132 ng/mL.

What about the EC50 (ng/mL), Proliferation of T cells; recovery of AMP-dependently suppressed human T cell functions of the same binder?
Its EC50 (ng/mL), Proliferation of T cells; recovery of AMP-dependently suppressed human T cell functions is 357 ng/mL.
